For this assay, the system named is luciferase position 361 and sfGFP amber suppression. The assay can be described thus: Amber suppression assays using several different reporters (luciferase and sfGFP). It is filed as cell-based, E. coli. To be noted: BocK; IPYE variant vs parent enzyme; FIGS. 9B-9D. The procedure: S1030 cells (25 μL) were electroporated with the appropriate plasmid(s) and recovered in SOC media (New England Biolabs) for 1 h while shaking at 37° C. Transformed cells were plated and grown overnight at 37° C. on LB agar containing the antibiotics required for plasmid maintenance. Single colonies were used to inoculate 2-3 mL of DRM containing antibiotics and were grown overnight at 37° C. while shaking at 230 rpm. The saturated overnight cultures were diluted 100-fold in a 96-well deep well plate using 1 mL of DRM containing the required antibiotic and supplemented with 1 mM ncAA where denoted. […] The plate continued to incubate with shaking at 37° C. for an additional 2-3 h until maximum luminescence signal was observed. Each luminescence measurement was taken on 150 μL of each culture, which had been transferred to a 96-well black wall, clear bottom plate (Costar). The A600 and luminescence measurements from each well were taken using an Infinite M1000 Pro microplate reader (Tecan). […] The raw luminescence value from each well was divided by the background-subtracted A600 value of the corresponding well to provide the luminescence value normalized to cell density. […]

B1: MbPylRS(IPYE): M. barkeri PylRS with transplanted PACE mutations V31I, T56P, H62Y, A100E (protein, UniProt Q6WRH6 1-419, looked up, variant V31I T56P H62Y A100E)
Pyrrolysine--tRNA ligase: MDKKPLDVLISATGLWMSRTGTLHKIKHHEISRSKIYIEMACGDHLVVNNSRSCRPARAFRYHKYRKTCKRCRVSDEDINNFLTRSTESKNSVKVRVVSEPKVKKAMPKSVSRAPKPLENSVSAKASTNTSRSVPSPAKSTPNSSVPASAPAPSLTRSQLDRVEALLSPEDKISLNMAKPFRELEPELVTRRKNDFQRLYTNDREDYLGKLERDITKFFVDRGFLEIKSPILIPAEYVERMGINNDTELSKQIFRVDKNLCLRPMLAPTLYNYLRKLDRILPGPIKIFEVGPCYRKESDGKEHLEEFTMVNFCQMGSGCTRENLEALIKEFLDYLEIDFEIVGDSCMVYGDTLDIMHGDLELSSAVVGPVSLDREWGIDKPWIGAGFGLERLLKVMHGFKNIKRASRSESYYNGISTNL
B1: the “activity in amber suppression assays using several different reporters” value is given as “dramatically enhanced”.

B2: MmPylRS(IPYE): M. mazei PylRS with transplanted PACE mutations V31I, T56P, H62Y, A100E (protein, UniProt Q8PWY1 1-454, looked up, variant V31I T56P H62Y A100E)
Pyrrolysine--tRNA ligase: MDKKPLNTLISATGLWMSRTGTIHKIKHHEISRSKIYIEMACGDHLVVNNSRSSRPARALRYHKYRKTCKRCRVSDEDLNKFLTKANEDQTSVKVKVVSEPTRTKKAMPKSVARAPKPLENTEAAQAQPSGSKFSPAIPVSTQESVSVPASVSTSISSISTGATASALVKGNTNPITSMSAPVQASAPALTKSQTDRLEVLLNPKDEISLNSGKPFRELESELLSRRKKDLQQIYAEERENYLGKLEREITRFFVDRGFLEIKSPILIPLEYIERMGIDNDTELSKQIFRVDKNFCLRPMLAPNLYNYLRKLDRALPDPIKIFEIGPCYRKESDGKEHLEEFTMLNFCQMGSGCTRENLESIITDFLNHLGIDFKIVGDSCMVYGDTLDVMHGDLELSSAVVGPIPLDREWGIDKPWIGAGFGLERLLKVKHDFKNIKRAARSESYYNGISTNL
For the molecule B2, the “activity in amber suppression assays using several different reporters” value is on record as “improved, albeit more modestly”.

The record behind these values is patent publication US11447809B2, “Evolution of tRNA synthetases” (President and Fellows of Harvard College, priority 2017, dated 2022).
